Here are results for one molecule from patent publication US20180223372A1, “IDENTIFICATION OF PREDICTIVE BIOMARKERS ASSOCIATED WITH WNT PATHWAY INHIBITORS” (OncoMed Pharmaceutical, Inc., priority 2015, published 2018).

In one assay the test system is OMP-LU24 lung tumor. Put plainly: OMP-LU24 NSCLC xenograft, OMP-18R5 vs control antibody. The format is in vivo, NOD/SCID mice. The note with it: OMP-LU24 squamous cell carcinoma; 15-20 mg/kg intraperitoneally weekly; tumor volume vs control antibody. The text has this: (§1) The non-small cell lung cancer (NSCLC) tumor xenograft models OMP-LU02, OMP-LU11, OMP-LU24, OMP-LU25, OMP-LU33, OMP-LU45, and OMP-LU56 (and other OncoMed models described herein) were established at OncoMed Pharmaceuticals from minimally passaged, patient-derived tumor specimens. The tumor specimens were examined by a pathologist and classified as lung tumors. OncoMed relies on these classifications unless further analyses are done on any specific tumor and a reclassification is deemed necessary. […] Tumor-bearing mice were randomized into groups (n=8-10 per group) and treated with control antibody or anti-FZD antibody OMP-18R5. The antibodies were dosed at 15-20 mg/kg and were administered intraperitoneally on a weekly basis. […] Data are expressed as mean±S.E.M.
(§2) To determine if a tumor was responsive to anti-FZD antibody OMP-18R5, tumor volume data from mice treated with the control antibody were compared with tumor volume data from mice treated with OMP-18R5.

Another assay relates to OMP-LU25 lung tumor. The experiment in a line: OMP-LU25 NSCLC xenograft, OMP-18R5 vs control antibody. The format is in vivo, NOD/SCID mice. The note with it: OMP-LU25 large cell carcinoma; 15-20 mg/kg intraperitoneally weekly; tumor volume vs control antibody.
Source text: as §1, §2

For a further assay, the system named is OMP-LU56 lung tumor. Put plainly: OMP-LU56 NSCLC xenograft, OMP-18R5 vs control antibody. The format is in vivo, NOD/SCID mice. The note with it: OMP-LU56 carcinoma; 15-20 mg/kg intraperitoneally weekly; tumor volume vs control antibody.
Source text: as §1, §2

The test system of a further assay is OMP-LU02 lung tumor. The experiment in a line: OMP-LU02 NSCLC xenograft, OMP-18R5 vs control antibody. The format is in vivo, NOD/SCID mice. The note with it: OMP-LU02 adenocarcinoma; 15-20 mg/kg intraperitoneally weekly; tumor volume vs control antibody.
Source text: as §1, §2

The test system of the next assay is OMP-LU11 lung tumor. Put plainly: OMP-LU11 NSCLC xenograft, OMP-18R5 vs control antibody. The note with it: OMP-LU11 squamous cell carcinoma; 15-20 mg/kg intraperitoneally weekly; tumor volume vs control antibody. The format is in vivo, NOD/SCID mice.
Source text: as §1, §2

The next assay concerns OMP-LU45 lung tumor. The experiment in a line: OMP-LU45 NSCLC xenograft, OMP-18R5 vs control antibody. Type of assay: in vivo, NOD/SCID mice. The note with it: OMP-LU45 adenocarcinoma; 15-20 mg/kg intraperitoneally weekly; tumor volume vs control antibody.
Source text: as §1, §2

The subject of a further assay is OMP-LU33 lung tumor. Put plainly: OMP-LU33 NSCLC xenograft, OMP-18R5 vs control antibody. The note with it: OMP-LU33 carcinoma; 15-20 mg/kg intraperitoneally weekly; tumor volume vs control antibody. Type of assay: in vivo, NOD/SCID mice.
Source text: as §1, §2

The subject of assay [1] is genes in the Wnt, Notch, and stem cell pathways; Wnt pathway target genes including AXIN2 and LEF1. The experiment in a line: pharmacodynamics (PD) biomarker analysis. Type of assay: in vivo. The note with it: data not shown. As to the method: In addition, a pharmacodynamics (PD) biomarker analysis was performed and confirmed inhibition of genes in the Wnt. Notch, and stem cell pathways by treatment with OMP-18R5.

B1: OMP-18R5: anti-FZD IgG2 antibody binding FZD1, FZD2, FZD5, FZD7, FZD8; ATCC deposit PTA-9541; heavy/light chain SEQ ID NO:11 and 12 (antibody)
heavy: EVQLVESGGGLVQPGGSLRLSCAASGFTFSHYTLSWVRQAPGKGLEWVSVISGDGSYTYYADSVKGRFTISSDNSKNTLYLQMNSLRAEDTAVYYCARNFIKYVFANWGQGTLVTVSSASTKGPSVFPLAPCSRSTSESTAALGCLVKDYFPEPVTVSWNSGALTSGVHTFPAVLQSSGLYSLSSVVTVPSSNFGTQTYTCNVDHKPSNTKVDKTVERKCCVECPPCPAPPVAGPSVFLFPPKPKDTLMISRTPEVTCVVVDVSHEDPEVQFNWYVDGVEVHNAKTKPREEQFNSTFRVVSVLTVVHQDWLNGKEYKCKVSNKGLPAPIEKTISKTKGQPREPQVYTLPPSREEMTKNQVSLTCLVKGFYPSDIAVEWESNGQPENNYKTTPPMLDSDGSFFLYSKLTVDKSRWQQGNVFSCSVMHEALHNHYTQKSLSLSPGK
light: DIELTQPPSVSVAPGQTARISCSGDNIGSFYVHWYQQKPGQAPVLVIYDKSNRPSGIPERFSGSNSGNTATLTISGTQAEDEADYYCQSYANTLSLVFGGGTKLTVLGQPKAAPSVTLFPPSSEELQANKATLVCLISDFYPGAVTVAWKADSSPVKAGVETTTPSKQSNNKYAASSYLSLTPEQWKSHRSYSCQVTHEGSTVEKTVAPTECS
modifications: Heavy chain amino acid sequence; Light chain amino acid sequence
B1: the Classification result in the assay on OMP-LU24 lung tumor is recorded as “Responder”; in the assay with OMP-LU25 lung tumor, “Non-responder”; in the assay with OMP-LU56 lung tumor it was “Non-responder”; in the assay on OMP-LU02 lung tumor it was “Non-responder”; with OMP-LU11 lung tumor, “Responder”; in the assay with OMP-LU45 lung tumor, “Non-responder”. Moreover, the Classification result in the assay with OMP-LU33 lung tumor is given as “Responder”. The “Wnt pathway target genes including AXIN2 and LEF1” value in assay [1] (OMP-18R5 as a single agent) is reported as “down-regulated significantly”. Also, the “genes in the Wnt, Notch, and stem cell pathways” value in assay [1] (treatment with OMP-18R5) is given as “inhibition”.
